Data published in PMC5431965.

Experiments:
[1] = target: HydF, wild type recombinant, Thermotoga neapolitana (Thermotoga neapolitana); experiment: SEC; Superdex 200 GL 10 300 in 25 mM Tris-HCl pH 8.0, 200 mM KCl, 1 mM MgCl2; column calibrated with molecular weight standards
[2] = target: HydF V261C mutant (cysteine-less background), spin labeled with MTSSL (Thermotoga neapolitana); experiment: PELDOR (DEER) pulse EPR; distances between spin labels on the two monomers; protein about 150 uM in deuterated buffer with 33% v/v deuterated glycerol, quickly frozen, Q-band, 50 K; without and with 10 mM GTP

Row | stoichiometry N [1] | stoichiometry N [2] | Substance
1 | 2 | – | HydF, wild type recombinant, Thermotoga neapolitana (natural protein)
2 | – | 2 | HydF V261C mutant (cysteine-less background), spin labeled with MTSSL (natural protein)
